Measured values published in US10835618.

Tests used:
[1] = biological target: Polyvalent sialyl Le^a-HSA (Isosep AB); assay: ELISA on plates coated with sialyl-Lewis^a-HSA, OD 450nm
[2] = biological target: Polyvalent sialyl Le^a-HSA (Isosep AB); assay: ELISA on coated sialyl-Lewis^a-HSA
[3] = biological target: Polyvalent sialyl Le^a-HSA (Isosep AB); assay: SPR (Biacore X or 3000), sialyl Le^a-HSA coupled to CM5 chip; major population; major population (80%), two-population fit
[4] = biological target: Polyvalent sialyl Le^a-HSA (Isosep AB); assay: SPR, real-time sialyl Le^a-HSA binding, antigen on CM5 chip
[5] = biological target: Polyvalent sialyl Le^a-HSA (Isosep AB); assay: SPR (Biacore X or 3000), sialyl Le^a-HSA coupled to CM5 chip; minor population
[6] = biological target: Polyvalent sialyl Le^a-HSA (Isosep AB); assay: SPR (Biacore X or 3000), sialyl Le^a-HSA coupled to CM5 chip; minor population; minor population (20%), two-population fit
[7] = biological target: Polyvalent sialyl Le^a-HSA (Isosep AB); assay: SPR (Biacore X or 3000), sialyl Le^a-HSA coupled to CM5 chip; major population

Chain of FG129 mAb (mouse FG129/29 IgG1 kappa) (antibody) (heavy): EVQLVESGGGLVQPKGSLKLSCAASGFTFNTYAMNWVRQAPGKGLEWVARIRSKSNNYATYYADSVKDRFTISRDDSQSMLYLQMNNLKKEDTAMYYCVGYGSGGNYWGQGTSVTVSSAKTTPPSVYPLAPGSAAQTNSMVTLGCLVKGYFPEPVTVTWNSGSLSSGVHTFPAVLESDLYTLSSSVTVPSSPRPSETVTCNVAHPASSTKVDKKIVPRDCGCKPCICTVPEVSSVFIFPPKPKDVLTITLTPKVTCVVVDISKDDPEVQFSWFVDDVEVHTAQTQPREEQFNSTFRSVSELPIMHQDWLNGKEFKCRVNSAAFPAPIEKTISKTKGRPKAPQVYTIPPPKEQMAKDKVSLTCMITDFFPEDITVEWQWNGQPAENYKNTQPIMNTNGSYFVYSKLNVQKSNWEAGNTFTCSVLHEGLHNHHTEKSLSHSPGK
Chain of FG129 mAb (mouse FG129/29 IgG1 kappa) (antibody) (light): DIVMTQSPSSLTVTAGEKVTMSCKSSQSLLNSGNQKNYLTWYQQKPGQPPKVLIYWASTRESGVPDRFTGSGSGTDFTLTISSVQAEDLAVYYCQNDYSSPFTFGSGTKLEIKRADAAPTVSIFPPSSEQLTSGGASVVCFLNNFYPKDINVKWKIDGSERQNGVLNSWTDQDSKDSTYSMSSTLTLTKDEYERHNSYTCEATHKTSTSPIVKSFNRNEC

**Q.** For “CA19.9 (anti-sialyl lewis a Mab) (antibody)”, which EC50 [1] is on record?
**A.** 0.186 nM

**Q.** “FG129 mAb (mouse FG129/29 IgG1 kappa) (antibody)” was tested. Which EC50 [2] did it give?
**A.** 0.1 nM

**Q.** What about the Kd [3] of the same substance?
**A.** 130 nM

**Q.** And the Kd [4]?
**A.** 0.2 nM

**Q.** What about the koff [4] of the same substance?
**A.** 0.00011 s⁻¹

**Q.** And the kon [4]?
**A.** 620000 M⁻¹ s⁻¹

**Q.** What about the EC50 [1] of the same substance?
**A.** 0.287 nM

**Q.** What about the Kd [5] of the same substance?
**A.** 0.00014 nM

**Q.** What about the kon [5] of the same substance?
**A.** 88500 M⁻¹ s⁻¹

**Q.** What about the koff [6] of the same substance?
**A.** 1.35e-08 s⁻¹

**Q.** What about the koff [7] of the same substance?
**A.** 0.00257 s⁻¹

**Q.** And the kon [7]?
**A.** 19700 M⁻¹ s⁻¹
